Measured values published in article PMC6803667 (Scientific Reports, 2019).
Values joined by “and” are separate entries in the source; they are usually repeats but may differ in a detail not shown here. Identical values can stand only once.

Tests used:
Details in all cases: both partners purified
[1] = target: T1, second WW domain of human YAP2 (YAP-WW2) (human, UniProt P46937-2 228-271); assay: other fluorescence titration
T1 construct: also called hYAP-WW2; not shown: GST, N-terminal, cleaved; His tag, N-terminal, cleaved

[2] = target: T2, first WW domain of human YAP2 (YAP-WW1) (human, UniProt P46937-2 165-209); assay: other fluorescence titration
T2 construct: also called hYAP-WW1; not shown: GST, N-terminal, cleaved; His tag, N-terminal, cleaved

[3] = target: T3, third WW domain of human NEDD4 (hNEDD4-WW3), unlabelled (human, UniProt P46934 834-878); assay: ITC
T3 construct: not shown: GST, N-terminal, cleaved; His tag, N-terminal, cleaved

[4] = target: T1, second WW domain of human YAP2 (YAP-WW2); assay: ITC
[5] = target: T2, first WW domain of human YAP2 (YAP-WW1); assay: ITC
[6] = target: T1, second WW domain of human YAP2 (YAP-WW2); assay: other fluorescence titration; tryptophan fluorescence of the WW domain (20 uM), excitation 298 nm, centre of spectral mass against peptide concentration, one to one model; 20 mM sodium phosphate pH 7.0, 25 °C
[7] = target: T2, first WW domain of human YAP2 (YAP-WW1); assay: as above

T1 sequence (P46937 228-271): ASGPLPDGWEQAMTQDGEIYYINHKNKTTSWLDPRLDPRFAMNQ
T2 sequence (P46937 165-209): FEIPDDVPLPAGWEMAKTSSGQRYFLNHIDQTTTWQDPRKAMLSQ
T3 sequence (P46934 834-878): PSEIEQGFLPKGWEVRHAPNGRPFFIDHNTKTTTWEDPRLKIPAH

Binder: ILPTAPPEYMEA [Ebola Late domain peptide]
- Kd [1]: 560 ± 30 µM
- Kd [2]: 750 ± 10 µM
- Kd [3]: 147 ± 4 µM
- dH [3]: -12.1 ± 0.167 kcal/mol

Binder: Ac-EYPPYPPPPYPSG-NH2 [p53bp2 human peptide]
- Kd [4]: 12 ± 0.6 µM
- dH [4]: -13.6 ± 0.239 kcal/mol
- Kd [5]: 3 µM and 1.1 µM and 1.8 µM
- dH [5]: -14.6 kcal/mol and -15.9 kcal/mol and -13.1 kcal/mol

Binder: DLWLPPPEYVPL [Rabies Late domain peptide]
- Kd [5]: 181 ± 5 µM
- dH [5]: -15.2 ± 0.215 kcal/mol
- Kd [3]: 51 ± 1 µM
- dH [3]: -15.7 ± 0.191 kcal/mol

Binder: SDPQIPPPYVEP [HTLV1 Late domain peptide]
- Kd [6]: 260 ± 40 µM
- Kd [7]: 308 ± 4 µM
- Kd [3]: 61 ± 1 µM
- dH [3]: -16.3 ± 0.143 kcal/mol

B1: HTLV1ter Late domain peptide (peptide)
peptide: Ac-PPPYVEPTAP-NH2
notes: source: synthetic peptide, bought: SynBioSci Corporation
- Kd [3]: 178 ± 3 µM
- dH [3]: -17.7 ± 0.191 kcal/mol

Binder: MQYLNPPPYADH [Marburg Late domain peptide]
- Kd [1]: 17 ± 1 µM
- Kd [2]: 67 ± 4 µM
- Kd [3]: 51 ± 1 µM
- dH [3]: -17.5 ± 0.167 kcal/mol
